Consider one molecule from US20260029420A1, “ANTI-CB2 ANTIBODIES AND THEIR USE IN A FLOW CYTOMETRY ASSAY TO MEASURE CELL SURFACE CB2 EXPRESSION” (Hoffmann-La Roche Inc., priority 2022, published 2026).

Data set [1] deals with CHODukx negative. As to the kind of experiment: Immunofluorescence on methanol-fixed cells, negative control. Type of data set: binding. Also noted: key to immunofluorescence signal intensity: “−” no fluorescence detected; “+”-“++++” intensity of fluorescent signal; “+”-“++++” intensity of fluorescent signal; “+”-“++++” intensity of fluorescent signal; “+”-“++++” intensity of fluorescent signal. The procedure:
(§1) The positive clones (Table 1) were further characterized by immunofluorescence (IF; Table 2), Western Blot (Table 3, 1) and Immune precipitation (Table 4, 2) on full length hCB2, hCB1, mCB2 stable-transfected CHO-cell lines in addition to the 2 pANITA constructs.
For IF analysis, methanol-fixed cells were incubated for 20 min in a humid chamber at 37° C. with the respective hCB2 and mCB2 clones. After rinsing twice and washing for 15 min in PBS, 125 μg/ml FITC-conjugated […] anti-mouse IgG antibodies (RAM/IgG (H+L)/FITC, Nordic
Immunological Laboratories) diluted in PBS was added and incubated for 20 min in a humid chamber at 37° C. Cells were rinsed twice and washed for 15 min in PBS, mounted with mounting solution (50% PBS 50% glycerol) and covered with a coverslip. Staining was assessed by fluorescence microscopy on a Leica CTR500 fluorescence microscope and a Leica DFC300 FX digital camera.

Data set [2] is described as follows: Storage stability of antibody working dilution. Type of data set: physicochemical. The settings on record: working dilution (5 μg/sample), on ice. The procedure:
FIG. 12: Single dose in vivo study monitoring the pharmacodynomic effect of RG7774 on CB2 expression on B-cells in Cynomolgus upon oral dosing. Three healthy cynomolgus monkeys were dosed with 100 mg/kg of the CB2 agonist RG7774. The blood draw at different time points was followed by the incubation with the anti-human CB2 antibody 1/622. The expression of CB2 on the surface of B-cells was analyzed using a lineage marker mix specific for B-cells and T-cells. The B/T-cell CB2 MFI ratio was calculated and normalized to baseline. 0 μM served as 100% baseline receptor expression. […] Due to a storage effect of the antibody working dilution (5 μg/sample) of the anti-human CB2 Ab 1/622 the 4 and 7 hours' time point have been excluded. The working dilution of this antibody is only stable for 2 hours on ice.

Another data set concerns the target T1, CHO-A2 mCB2 (Mus musculus, UniProt P47936).
T1 construct: expressed in transfected cells
The data set can be described thus: Western blot of cell lysates. The settings on record: CHO-A2 mCB2 lysate. Also noted: key: “−” no signal; “+”-“+++++” signal intensity; “+”-“+++++” signal intensity; “+”-“+++++” signal intensity; “+”-“+++++” signal intensity; “+”-“+++++” signal intensity. Type of data set: binding. On the procedure:
as §1
(§2) For Western blot analysis, cells were collected using enzyme free dissociation buffer (Cell dissociation buffer enzyme-free Hanks'-based, Gibco), and washed two times with PBS. To prepare cell lysate, 10^6 cells were lysed with 0.1 ml of lysis buffer (1% NP40, 10% glycerol, 2 mM EDTA, 137 mM NaCl, 20 mM TrisHCl, pH8, Protease Inhibitors) for 10 min on ice. The lysate was cleared by centrifugation at 20′000 g for 5 min. For SDS-PAGE cell lysate was resolved on precast 4-12% gradient gels (NuPAGE® Novex 4-12% Bis-Tris Gel, Invitrogen) with MES running buffer according to the manufacturer's directions. The separation of proteins was visualized by Colloidal Blue staining. The proteins were electrophoretically transferred to nitrocellulose membrane using a dry-blotting system (iBlot, Invitrogen). After blocking the membrane for 16 h in blocking buffer (5% Milk in PBS) at 4° C., specific proteins were detected with appropriate dilutions of mAbs in blocking buffer for 1 h at approximately 20° C. […]
(In general: Immunoblotting shows a protein as a band on a membrane.)

A further data set concerns the target T2, CHODukx CRE hCB2 Cl.90 (Homo sapiens, UniProt P34972).
T2 construct: expressed in transfected cells
The data set can be described thus: Western blot of cell lysates. To be noted: CHODukx CRE hCB2 Cl.90 lysate. Also noted: key: “−” no signal; “+”-“+++++” signal intensity; “+”-“+++++” signal intensity; “+”-“+++++” signal intensity; “+”-“+++++” signal intensity; “+”-“+++++” signal intensity. The format is binding. The procedure:
as §1, §2

Data set [3] concerns pANITA3.1 ratGIPR (DB388). The data set can be described thus: Western blot of cell lysates. The format is binding, rat. Also noted: key to Western Blot signal intensity: “−” no signal; “+”-“+++++” signal intensity; “+”-“+++++” signal intensity; “+”-“+++++” signal intensity; “+”-“+++++” signal intensity; “+”-“+++++” signal intensity. The procedure: as §1, §2
For data set [4], the system named is CHODukx negative. The data set can be described thus: Western blot of cell lysates, negative control. The format is binding. Also noted: key: “−” no signal; “+”-“+++++” signal intensity; “+”-“+++++” signal intensity; “+”-“+++++” signal intensity; “+”-“+++++” signal intensity; “+”-“+++++” signal intensity. The settings on record: CHODukx negative lysate. On the procedure: as §1, §2

The next data set has as its target T3, pANITA3.1 mCB2 (JB176) (Mus musculus, UniProt P47936).
T3 construct: expressed in transfected cells; host or cells: HEK293
As to the kind of experiment: Immunoprecipitation from whole cell lysates. The format is binding. Also noted: key to Immunoprecipitation signal intensity: “−” no signal; “+”-“+++++” signal intensity; “+”-“+++++” signal intensity; “+”-“+++++” signal intensity; “+”-“+++++” signal intensity; “+”-“+++++” signal intensity. On the procedure:
as §1
(§3) For immunoprecipitation (IP), whole cell lysates were incubated with the respective antibodies. IP was performed according to established protocols and subsequent western blot as described herein above.

In data set [5] the test system is pANITA3.1 ratGIPR (DB388). The data set can be described thus: Immunoprecipitation from whole cell lysates. Type of data set: binding, rat. Also noted: key to Immunoprecipitation signal intensity: “−” no signal; “+”-“+++++” signal intensity; “+”-“+++++” signal intensity; “+”-“+++++” signal intensity; “+”-“+++++” signal intensity; “+”-“+++++” signal intensity. The procedure: as §1, §3

Setting [6] is: pANITA3.1 ratGIPR (DB388) lysate.

T3 sequence (P47936 with tags, fused parts or gaps): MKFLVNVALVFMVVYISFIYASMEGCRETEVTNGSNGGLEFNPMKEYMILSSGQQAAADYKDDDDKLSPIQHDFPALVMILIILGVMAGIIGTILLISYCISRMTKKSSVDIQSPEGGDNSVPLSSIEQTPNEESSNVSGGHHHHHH
T1 sequence (P47936 whole entry): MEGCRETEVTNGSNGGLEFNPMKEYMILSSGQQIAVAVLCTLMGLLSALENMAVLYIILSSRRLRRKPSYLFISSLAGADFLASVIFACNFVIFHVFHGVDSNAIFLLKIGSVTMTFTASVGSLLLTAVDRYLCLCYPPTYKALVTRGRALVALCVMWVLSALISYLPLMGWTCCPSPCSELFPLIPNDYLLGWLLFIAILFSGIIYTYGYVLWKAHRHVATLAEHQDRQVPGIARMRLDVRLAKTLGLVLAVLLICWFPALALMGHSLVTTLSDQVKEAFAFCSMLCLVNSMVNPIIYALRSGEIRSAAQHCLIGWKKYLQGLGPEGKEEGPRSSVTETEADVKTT
T2 sequence (P34972 whole entry): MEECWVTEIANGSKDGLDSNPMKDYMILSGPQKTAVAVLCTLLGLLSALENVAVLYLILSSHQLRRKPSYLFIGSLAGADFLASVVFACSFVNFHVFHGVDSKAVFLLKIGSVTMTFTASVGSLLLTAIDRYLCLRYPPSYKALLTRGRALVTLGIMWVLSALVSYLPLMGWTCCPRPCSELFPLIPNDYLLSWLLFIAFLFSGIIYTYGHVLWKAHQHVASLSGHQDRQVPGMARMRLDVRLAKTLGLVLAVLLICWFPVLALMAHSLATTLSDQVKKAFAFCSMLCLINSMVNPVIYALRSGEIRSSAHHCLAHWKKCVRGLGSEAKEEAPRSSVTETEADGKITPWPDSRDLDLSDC

B1: hCB2-1/622: murine IgG3 monoclonal anti-human CB2 antibody, VH SEQ ID NO: 1, VL SEQ ID NO: 2, HC SEQ ID NO: 3, LC SEQ ID NO: 4 (antibody)
heavy: EVQLQQSGPELVKPGASVKISCKTSGYTFTEYTMHWVRQSHGKSLEWIGGIDRYNGDTYYNQKFKDKATLTVDRSSSTAYMELRSLTSEDSAVYFCARNGAMDYWGQGISVTVSSATTTAPSVYPLVPGCSDTSGSSVTLGCLVKGYFPEPVTVKWNYGALSSGVRTVSSVLQSGFYSLSSLVTVPSSTWPSQTVICNVAHPASKTELIKRIEPRIPKPSTPPGSSCPPGNILGGPSVFIFPPKPKDALMISLTPKVTCVVVDVSEDDPDVHVSWFVDNKEVHTAWTQPREAQYNSTFRVVSALPIQHQDWMRGKEFKCKVNNKALPAPIERTISKPKGRAQTPQVYTIPPPREQMSKKKVSLTCLVTNFFSEAISVEWERNGELEQDYKNTPPILDSDGTYFLYSKLTVDTDSWLQGEIFTCSVVHEALHNHHTQKNLSRSPGK
light: DVVMTQTPLSLPVSLGDQASISCRSSQSLVHSNGNTYLHWFLQKPGQSPKLLIYKVSIRFSGVPDRFSGSGSGTDFTLKISRVEAEDLGVYFCSQSTHVPPLTFGAGTKLELKRADAAPTVSIFPPSSEQLTSGGASVVCFLNNFYPKDINVKWKIDGSERQNGVLNSWTDQDSKDSTYSMSSTLTLTKDEYERHNSYTCEATHKTSTSPIVKSFNRNEC
Consider B1, for which, in the data set on CHODukx negative [1] (CHODukx negative cells), the immunofluorescence signal intensity entry is “−”. Also, the “immunofluorescence staining” value with CHODukx negative [1] (negative control cells) was “no staining”. In addition, the “stability of antibody working dilution” value in data set [2] was determined as 2 h. The “Western Blot signal intensity” value (in the data set with CHO-A2 mCB2; with CHODukx CRE hCB2 Cl.90; in data set [3] (setting [6]); with CHODukx negative [4]) was “−” in each case. For the same molecule, the “Western blot detection” value in data set [3] (rat GIPR) was “no mCB2, hCB1 or rat GIPR was detected”. In addition, the “immunoprecipitation cross reactivity” value (with pANITA3.1 mCB2 (JB176) (mCB2); in data set [5] (rat GIPR)) was “no cross reactivity” each time. The Immunoprecipitation signal intensity result (with pANITA3.1 mCB2 (JB176) (pANITA3.1 mCB2 (JB176) lysate); in data set [5] (setting [6])) was “−” in each case.
